Measurements reported in the supplement of paper PMC9112550, “Optimization of the antimicrobial peptide Bac7 by deep mutational scanning” (BMC Biology, 2022).

Test system: Escherichia coli TOP10
Assay: shrunken log2 fold change of peptide-encoding DNA abundance (4.5 h post-induction vs induction); higher = less antimicrobial activity (less host growth inhibition)
Settings: time post-induction: 4.5 h; library: site-saturation at positions 5, 18, 19, 20
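Also: peptides expressed intracellularly from a pBAD plasmid library in pooled LB shake-flask culture, induced with 0.3% L-arabinose, DNA abundance read by NGS, three biological replicates, DESeq2 with apeglm shrinkage.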

Row | Sequence | shrunken log2 fold change
1 | RRIRVRPPRLPRPRPRPNTFPRP | -0.521
2 | RRIRVRPPRLPRPRPRPNTHPRP | -0.457
3 | RRIRVRPPRLPRPRPRPNVKPRP | -0.159
4 | RRIRVRPPRLPRPRPRPNYNPRP | -0.76
5 | RRIRVRPPRLPRPRPRPPAQPRP | 0.223
6 | RRIRVRPPRLPRPRPRPPATPRP | 0.18
7 | RRIRVRPPRLPRPRPRPPCDPRP | 0.52
8 | RRIRVRPPRLPRPRPRPPDDPRP | 0.107
9 | RRIRVRPPRLPRPRPRPPDKPRP | 0.265
10 | RRIRVRPPRLPRPRPRPPDSPRP | -0.136
11 | RRIRVRPPRLPRPRPRPPELPRP | 0.186
12 | RRIRVRPPRLPRPRPRPPEVPRP | 0.0599
13 | RRIRVRPPRLPRPRPRPPGVPRP | 0.216
14 | RRIRVRPPRLPRPRPRPPHMPRP | -0.0804
15 | RRIRVRPPRLPRPRPRPPHWPRP | 0.489
16 | RRIRVRPPRLPRPRPRPPIAPRP | 0.322
17 | RRIRVRPPRLPRPRPRPPKPPRP | 0.107
18 | RRIRVRPPRLPRPRPRPPMHPRP | 0.245
19 | RRIRVRPPRLPRPRPRPPMPPRP | 0.368
20 | RRIRVRPPRLPRPRPRPPMSPRP | -0.249
21 | RRIRVRPPRLPRPRPRPPPIPRP | 0.59
22 | RRIRVRPPRLPRPRPRPPQAPRP | 0.0808
23 | RRIRVRPPRLPRPRPRPPQIPRP | 0.22
24 | RRIRVRPPRLPRPRPRPPQLPRP | 0.0208
25 | RRIRVRPPRLPRPRPRPPSGPRP | 0.208

Row | Sequence | shrunken log2 fold change
26 | RRIRVRPPRLPRPRPRPPSIPRP | 0.231
27 | RRIRVRPPRLPRPRPRPPSLPRP | 1.99
28 | RRIRVRPPRLPRPRPRPPSQPRP | 0.125
29 | RRIRVRPPRLPRPRPRPPTEPRP | 0.273
30 | RRIRVRPPRLPRPRPRPPTKPRP | 0.417
31 | RRIRVRPPRLPRPRPRPPTVPRP | 0.167
32 | RRIRVRPPRLPRPRPRPPVEPRP | 0.424
33 | RRIRVRPPRLPRPRPRPPVVPRP | -0.0362
34 | RRIRVRPPRLPRPRPRPQAEPRP | 0.352
35 | RRIRVRPPRLPRPRPRPQAFPRP | 0.0753
36 | RRIRVRPPRLPRPRPRPQALPRP | -0.000718
37 | RRIRVRPPRLPRPRPRPQCAPRP | 0.135
38 | RRIRVRPPRLPRPRPRPQCPPRP | -0.0117
39 | RRIRVRPPRLPRPRPRPQDIPRP | -0.328
40 | RRIRVRPPRLPRPRPRPQEVPRP | -0.186
41 | RRIRVRPPRLPRPRPRPQFKPRP | -0.576
42 | RRIRVRPPRLPRPRPRPQFMPRP | -0.232
43 | RRIRVRPPRLPRPRPRPQFPPRP | -0.28
44 | RRIRVRPPRLPRPRPRPQFWPRP | -0.178
45 | RRIRVRPPRLPRPRPRPQGSPRP | -0.205
46 | RRIRVRPPRLPRPRPRPQHFPRP | 0.0726
47 | RRIRVRPPRLPRPRPRPQHMPRP | -0.23
48 | RRIRVRPPRLPRPRPRPQKIPRP | 0.0538
49 | RRIRVRPPRLPRPRPRPQKMPRP | -0.234
50 | RRIRVRPPRLPRPRPRPQKTPRP | 0.0603

Row | Sequence | shrunken log2 fold change
51 | RRIRVRPPRLPRPRPRPQNMPRP | -0.465
52 | RRIRVRPPRLPRPRPRPQNVPRP | -0.51
53 | RRIRVRPPRLPRPRPRPQPEPRP | 0.23
54 | RRIRVRPPRLPRPRPRPQSAPRP | -0.054
55 | RRIRVRPPRLPRPRPRPQSTPRP | 0.00487
56 | RRIRVRPPRLPRPRPRPQVWPRP | 0.345
57 | RRIRVRPPRLPRPRPRPQVYPRP | -0.0131
58 | RRIRVRPPRLPRPRPRPQWDPRP | -0.0347
59 | RRIRVRPPRLPRPRPRPQWPPRP | 0.336
60 | RRIRVRPPRLPRPRPRPQYVPRP | -0.262
61 | RRIRVRPPRLPRPRPRPRAEPRP | 0.677
62 | RRIRVRPPRLPRPRPRPRANPRP | 0.384
63 | RRIRVRPPRLPRPRPRPRASPRP | 0.281
64 | RRIRVRPPRLPRPRPRPRATPRP | 0.114
65 | RRIRVRPPRLPRPRPRPRAVPRP | 0.314
66 | RRIRVRPPRLPRPRPRPRAYPRP | -0.224
67 | RRIRVRPPRLPRPRPRPRCYPRP | -0.31
68 | RRIRVRPPRLPRPRPRPRGPPRP | 0.946
69 | RRIRVRPPRLPRPRPRPRGYPRP | -0.068
70 | RRIRVRPPRLPRPRPRPRHNPRP | -0.389
71 | RRIRVRPPRLPRPRPRPRKPPRP | 0.0947
72 | RRIRVRPPRLPRPRPRPRLQPRP | -0.000502
73 | RRIRVRPPRLPRPRPRPRMVPRP | -0.0168
74 | RRIRVRPPRLPRPRPRPRNQPRP | 0.0453
75 | RRIRVRPPRLPRPRPRPRNRPRP | -0.338

Row | Sequence | shrunken log2 fold change
76 | RRIRVRPPRLPRPRPRPRQLPRP | 0.276
77 | RRIRVRPPRLPRPRPRPRRRPRP | 0.271
78 | RRIRVRPPRLPRPRPRPRSKPRP | -0.108
79 | RRIRVRPPRLPRPRPRPRTAPRP | 0.287
80 | RRIRVRPPRLPRPRPRPRTGPRP | -0.0024
81 | RRIRVRPPRLPRPRPRPRTYPRP | -0.309
82 | RRIRVRPPRLPRPRPRPRVKPRP | -0.221
83 | RRIRVRPPRLPRPRPRPRVYPRP | -0.587
84 | RRIRVRPPRLPRPRPRPRYHPRP | -0.36
85 | RRIRVRPPRLPRPRPRPSCHPRP | 0.292
86 | RRIRVRPPRLPRPRPRPSCQPRP | -0.643
87 | RRIRVRPPRLPRPRPRPSCYPRP | -0.568
88 | RRIRVRPPRLPRPRPRPSENPRP | 0.0175
89 | RRIRVRPPRLPRPRPRPSERPRP | -0.0442
90 | RRIRVRPPRLPRPRPRPSFIPRP | -0.749
91 | RRIRVRPPRLPRPRPRPSFLPRP | -0.666
92 | RRIRVRPPRLPRPRPRPSFWPRP | -0.0205
93 | RRIRVRPPRLPRPRPRPSGHPRP | -0.185
94 | RRIRVRPPRLPRPRPRPSGWPRP | 0.16
95 | RRIRVRPPRLPRPRPRPSHIPRP | -0.706
96 | RRIRVRPPRLPRPRPRPSICPRP | -0.208
97 | RRIRVRPPRLPRPRPRPSKIPRP | -0.0852
98 | RRIRVRPPRLPRPRPRPSLSPRP | -0.303
99 | RRIRVRPPRLPRPRPRPSLTPRP | -0.231
100 | RRIRVRPPRLPRPRPRPSNMPRP | -0.124

Row | Sequence | shrunken log2 fold change
101 | RRIRVRPPRLPRPRPRPSNPPRP | -0.454
102 | RRIRVRPPRLPRPRPRPSNVPRP | -0.139
103 | RRIRVRPPRLPRPRPRPSNWPRP | -0.331
104 | RRIRVRPPRLPRPRPRPSNYPRP | -0.342
105 | RRIRVRPPRLPRPRPRPSQNPRP | -0.242
106 | RRIRVRPPRLPRPRPRPSQQPRP | -0.116
107 | RRIRVRPPRLPRPRPRPSRNPRP | -0.0696
108 | RRIRVRPPRLPRPRPRPSRRPRP | 0.157
109 | RRIRVRPPRLPRPRPRPSRVPRP | 0.0356
110 | RRIRVRPPRLPRPRPRPSSEPRP | -0.327
111 | RRIRVRPPRLPRPRPRPSSFPRP | -0.423
112 | RRIRVRPPRLPRPRPRPSSSPRP | -0.113
113 | RRIRVRPPRLPRPRPRPSSYPRP | -0.139
114 | RRIRVRPPRLPRPRPRPSTLPRP | -0.166
115 | RRIRVRPPRLPRPRPRPSVLPRP | 0.226
116 | RRIRVRPPRLPRPRPRPSWVPRP | -0.32
117 | RRIRVRPPRLPRPRPRPSYCPRP | -0.18
118 | RRIRVRPPRLPRPRPRPSYNPRP | -0.485
119 | RRIRVRPPRLPRPRPRPTAHPRP | 0.246
120 | RRIRVRPPRLPRPRPRPTCMPRP | -0.125
121 | RRIRVRPPRLPRPRPRPTDDPRP | -0.183
122 | RRIRVRPPRLPRPRPRPTDEPRP | -0.148
123 | RRIRVRPPRLPRPRPRPTDHPRP | 0.00915
124 | RRIRVRPPRLPRPRPRPTEKPRP | -0.0708
125 | RRIRVRPPRLPRPRPRPTFHPRP | 0.0139

Row | Sequence | shrunken log2 fold change
126 | RRIRVRPPRLPRPRPRPTFYPRP | -0.145
127 | RRIRVRPPRLPRPRPRPTGRPRP | 0.274
128 | RRIRVRPPRLPRPRPRPTHWPRP | 0.509
129 | RRIRVRPPRLPRPRPRPTKKPRP | -0.0633
130 | RRIRVRPPRLPRPRPRPTKMPRP | 0.0488
131 | RRIRVRPPRLPRPRPRPTKSPRP | -0.00156
132 | RRIRVRPPRLPRPRPRPTMDPRP | -0.116
133 | RRIRVRPPRLPRPRPRPTNEPRP | -0.0806
134 | RRIRVRPPRLPRPRPRPTPVPRP | 0.465
135 | RRIRVRPPRLPRPRPRPTQSPRP | 0.332
136 | RRIRVRPPRLPRPRPRPTRHPRP | 0.156
137 | RRIRVRPPRLPRPRPRPTRKPRP | 0.575
138 | RRIRVRPPRLPRPRPRPTRRPRP | 0.529
139 | RRIRVRPPRLPRPRPRPTRSPRP | 0.17
140 | RRIRVRPPRLPRPRPRPTRWPRP | 0.173
141 | RRIRVRPPRLPRPRPRPTTHPRP | -0.0858
142 | RRIRVRPPRLPRPRPRPTVPPRP | -0.138
143 | RRIRVRPPRLPRPRPRPTWEPRP | 0.00966
144 | RRIRVRPPRLPRPRPRPTYPPRP | -0.194
145 | RRIRVRPPRLPRPRPRPVAIPRP | -0.396
146 | RRIRVRPPRLPRPRPRPVAQPRP | 0.247
147 | RRIRVRPPRLPRPRPRPVCFPRP | 0.147
148 | RRIRVRPPRLPRPRPRPVCNPRP | -0.0396
149 | RRIRVRPPRLPRPRPRPVCRPRP | -0.0404
150 | RRIRVRPPRLPRPRPRPVCWPRP | 0.472
